Measured values from IntAct's records for PubMed 18786395.

B1: FH1/FH2 domain-containing protein 1 (Homo sapiens), Q9Y613 (parent)
chain: MAGGEDRGDGEPVSVVTVRVQYLEDTDPFACANFPEPRRAPTCSLDGALPLGAQIPAVHRLLGAPLKLEDCALQVSPSGYYLDTELSLEEQREMLEGFYEEISKGRKPTLILRTQLSVRVNAILEKLYSSSGPELRRSLFSLKQIFQEDKDLVPEFVHSEGLSCLIRVGAAADHNYQSYILRALGQLMLFVDGMLGVVAHSDTIQWLYTLCASLSRLVVKTALKLLLVFVEYSENNAPLFIRAVNSVASTTGAPPWANLVSILEEKNGADPELLVYTVTLINKTLAALPDQDSFYDVTDALEQQGMEALVQRHLGTAGTDVDLRTQLVLYENALKLEDGDIEEAPGAGGRRERRKPSSEEGKRSRRSLEGGGCPARAPEPGPTGPASPVGPTSSTGPALLTGPASSPVGPPSGLQASVNLFPTISVAPSADTSSERSIYKARFLENVAAAETEKQVALAQGRAETLAGAMPNEAGGHPDARQLWDSPETAPAARTPQSPAPCVLLRAQRSLAPEPKEPLIPASPKAEPIWELPTRAPRLSIGDLDFSDLGEDEDQDMLNVESVEAGKDIPAPSPPLPLLSGVPPPPPLPPPPPIKGPFPPPPPLPLAAPLPHSVPDSSALPTKRKTVKLFWRELKLAGGHGVSASRFGPCATLWASLDPVSVDTARLEHLFESRAKEVLPSKKAGEGRRTMTTVLDPKRSNAINIGLTTLPPVHVIKAALLNFDEFAVSKDGIEKLLTMMPTEEERQKIEEAQLANPDIPLGPAENFLMTLASIGGLAARLQLWAFKLDYDSMEREIAEPLFDLKVGMEQLVQNATFRCILATLLAVGNFLNGSQSSGFELSYLEKVSEVKDTVRRQSLLHHLCSLVLQTRPESSDLYSEIPALTRCAKVDFEQLTENLGQLERRSRAAEESLRSLAKHELAPALRARLTHFLDQCARRVAMLRIVHRRVCNRFHAFLLYLGYTPQAAREVRIMQFCHTLREFALEYRTCRERVLQQQQKQATYRERNKTRGRMITETEKFSGVAGEAPSNPSVPVAVSSGPGRGDADSHASMKSLLTSRPEDTTHNRRSRGMVQSSSPIMPTVGPSTASPEEPPGSSLPSDTSDEIMDLLVQSVTKSSPRALAARERKRSRGNRKSLRRTLKSGLGDDLVQALGLSKGPGLEV

Variants of: B1
Details: with rash_human HRAS

Variant	effect of a mutation on the interaction
P41K	increasing interaction
